B1: Peroxisome proliferator-activated receptor delta, residues 71 to 145; numbered along this chain, Q03181 (parent)
chain: NMECRVCGDKASGFHYGVHACEGCKGFFRRTIRMKLEYEKCERSCKIQKKNRNKCQYCRFQKCLALGMSHNAIRF
B2: Arginine-glutamic acid dipeptide repeats protein, residues 502 to 543; numbered along this chain, Q9P2R6 (parent)
chain: LKGYACRHCFTTTSKDWHHGGRENILLCTDCRIHFKKYGELP

Variants of: B1
Assay: abundance fitness (aPCA) (normalised: wild type 0, dead -1); higher = more abundant; growth selection in yeast, the domain comes from the species named
Settings: Homo sapiens

Abundance fitness: each site, then its substitutions
N71: G -0.038; W -0.362; C -0.246; M -0.394; I -0.361; P 0.095; Y -0.337; F -0.477; R -0.242; A -0.036; D 0.103; L -0.412; V -0.31; H -0.173; K -0.127; Q 0.034; E 0.142
L64: G -0.805; R -0.391; S -0.648; V -0.022; H -0.274; M -0.188; I -0.037; Q -0.162; W -0.755; D -0.83; C -0.16; N -0.906; A -0.38; P -0.838; E -0.397; T -0.288; F -0.828
A65: D 0.092; K -0.073; N -0.026; H -0.288; Q -0.001; T -0.073; P -0.819; C -0.295; F -0.19; G -0.185; I -0.162; W -0.231; Y -0.301; L -0.098; S -0.011; E -0.003; V -0.075; R -0.086
R74: F 0.049; C -0.141; E 0.259; T 0.071; W -0.084; V -0.013; S 0.093; K 0.067; G 0.224; Y -0.081; P 0.151; N 0.011; M 0.004; A 0.079; Q 0.284; I 0.001
C63: G -0.591; L -0.547; S -0.905; V -0.912; M -0.063; D -0.635; K -0.791; R -0.508; F -0.403; T -0.85; A -0.585; E -0.689; Y -0.232; I -0.669; W -0.88; Q -0.698
M68: V -0.652; H -0.771; N -0.81; S -0.746; Y -0.718; K -0.769; T -0.769; L -0.725; P -0.64; Q -0.668; F -0.529; E -0.794; C -0.9; W -0.148; R -0.698; G -0.822; D -0.696; I -0.703
L66: Q 0.014; I 0.106; Y -0.345; G -0.419; H -0.436; T 0.086; K -0.018; W -0.629; P -0.681; F -0.438; E 0.067; S 0.03; N -0.014; C -0.15; D -0.521; V 0.113; R -0.315; A -0.077; M 0.109
K62: W -0.646; P -0.824; R -0.193; H -0.522; M -0.328; L -0.318; V -0.569; S -0.645; I -0.245; Y -0.441; Q -0.293; T -0.234
A72: W -0.353; R -0.257; C -0.126; N -0.092; T -0.248; F -0.27; L -0.144; E 0.122; I -0.297; H 0.047; M 0.019; S 0.052; Q 0.008; G 0.059; Y -0.156; K -0.175; D 0.132
S69: C -0.138; M 0.029; W -0.191; P -0.461; E 0.022; Q 0.088; R -0.162; L -0.053; H -0.045; K 0.023; T -0.013; V -0.057; N -0.118; D 0.147; F -0.268; G -0.001; Y -0.213; A -0.007
F75: T 0.171; W 0.176; I -0.023; G 0.218; D 0.285; R 0.066; S 0.216; E 0.088; A 0.15; K 0.238; P 0.152; Q 0.301; V 0.015; C 0.193; L 0.128; M -0.192; Y 0.026; N -0.021
H70: C -0.206; Q 0.108; R 0.063; K 0.019; D 0.394; G 0.048; E 0.172; F 0.039; N 0.013; W -0.177; P 0.185; A 0.02; Y -0.162; M 0.09; T 0.157; I 0.198; S 0.015; V 0.099
G67: Q -0.604; A -0.411; V -0.673; Y -0.854; S -0.694; F -0.459; P -0.562; L -0.808; W -0.666; H -0.714; C -0.469; K -0.407; M -0.497; N -0.36; T -0.687; I -0.74; R -0.584; E -0.525; D -0.441
I73: C 0.047; F -0.094; Q 0.078; W -0.152; P 0.215; A 0.202; G 0.136; N 0.039; D 0.119; K -0.05; L 0.087; Y -0.097; T 0.184; R -0.117; H -0.017; M 0.137; S 0.071; E 0.288

Variants of: B2
Assay: as above
Settings: Homo sapiens

Abundance fitness of substitutions, site by site:
A5: Q 0.039; P -0.335; D -0.022; C 0.032; M -0.046; Y -0.136; T 0.04; K -0.104; N -0.116; F 0.144; R 0.012; G 0.012; W 0.014; H 0.044; V -0.039; S 0.007; L -0.018
C6: G -0.878; L -1; Q -0.894; H -0.601; A -0.969; R -0.996; F -1.03; M -1.1; S -0.939; K -0.886; E -0.702
K2: Y -0.477; Q -0.107; I -0.241; M -0.09; H -0.374; R -0.153; V -0.023; P -0.357; N -0.046; G -0.12; S -0.049; W -0.401; A -0.116; T -0.367; L -0.196; F -0.078; E -0.038; D -0.004
L1: S -0.003; R -0.083; I 0.149; T 0.066; V 0.054; G 0.043; M 0.076; A 0.158; F 0.014; W -0.187; Q -0.245
Y4: F -0.032; V -0.181; P -0.257; T -0.074; H -0.084; E -0.135; D -0.037; R -0.155; Q -0.273; G -0.207; W -0.22; I -0.089; A -0.198; L -0.109; M 0.046; K -0.178; S -0.075; N 0.165; C -0.117
G3: Y -0.205; V -0.218; M -0.111; K -0.146; R -0.135; C -0.226; I -0.246; P -0.189; S -0.107; A -0.047; E -0.2; W -0.391; H -0.058; Q -0.373; T -0.093; L -0.205; F -0.247

From the Human Domainome abundance scans (Beltran et al. 2025)
